Measured values taken from patent US20180207294A1, “NON-ALCOHOLIC FATTY LIVER REGULATING FACTOR 14-3-3 PROTEIN” (Korea University Research and Business Foundation, priority 2015, published 2018).

Legend:
14-3-3γ and PPARγ2 = target: T1, 14-3-3γ and PPARγ2 (Homo sapiens, UniProt P37231); assay: Competitive GST-pull down assay, 14-3-3γ / PPARγ2 binding under 14-3-3β overexpression; conditions: as expression amount of 14-3-3β was increased (HA-14-3-3β DNA 2 and 4 μg); 10 μM pioglitazone; FIG. 5B
T1 construct: expressed in transfected cells; host or cells: HEK-293T
T1 sequence (P37231 1-505): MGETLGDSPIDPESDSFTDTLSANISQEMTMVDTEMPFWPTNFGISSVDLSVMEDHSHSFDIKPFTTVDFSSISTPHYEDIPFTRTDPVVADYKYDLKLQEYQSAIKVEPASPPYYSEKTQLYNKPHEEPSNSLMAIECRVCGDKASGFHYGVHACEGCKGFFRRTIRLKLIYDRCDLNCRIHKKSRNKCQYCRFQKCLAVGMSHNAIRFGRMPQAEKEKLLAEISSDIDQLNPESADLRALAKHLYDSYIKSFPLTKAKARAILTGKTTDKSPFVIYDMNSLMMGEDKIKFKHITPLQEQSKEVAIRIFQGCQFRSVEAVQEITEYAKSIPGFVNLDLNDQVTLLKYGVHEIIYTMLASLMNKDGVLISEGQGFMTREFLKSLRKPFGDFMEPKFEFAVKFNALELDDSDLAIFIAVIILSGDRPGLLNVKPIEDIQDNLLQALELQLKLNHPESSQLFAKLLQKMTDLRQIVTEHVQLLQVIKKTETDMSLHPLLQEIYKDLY
T1 sequence (P31946 1-246 partner): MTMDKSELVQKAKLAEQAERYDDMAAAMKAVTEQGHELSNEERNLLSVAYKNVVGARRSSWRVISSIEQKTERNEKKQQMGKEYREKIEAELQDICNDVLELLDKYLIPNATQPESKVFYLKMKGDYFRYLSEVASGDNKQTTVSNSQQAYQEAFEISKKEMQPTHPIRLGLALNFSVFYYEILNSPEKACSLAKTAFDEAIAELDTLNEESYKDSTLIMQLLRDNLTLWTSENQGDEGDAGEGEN
Method: (§1) From the previous experimental results, it was verified that 14-3-3β and 14-3-3γ were bound to the phosphorylated serine 273 residue of PPARγ2, and it was determined that the two proteins would competitively bind to the same residue. Thus, GST-pull down assay was carried out to verify competitive binding of 14-3-3β and 14-3-3γ with PPARγ2.
(§2) HEK-293T cells were seeded in a 100 mm plate at a density of 2×10^6 cells per each well, and then transfected with mGST-PPARγ2DNA (4 μg), GFP-14-3-3β DNA (4 μg) or GFP-14-3-3γ DNA (4 μg), and HA-14-3-3β DNA (2 and 4 μg) or HA-14-3-3γ DNA (2 and 4 μg) using an E-fection plus reagent (Lugen). A ratio of DNA to the E-fection plus reagent was 1:2 and this method was performed according to a manufacturer's manual. After transfection, the corresponding cells were treated with 10 μM of pioglitazone (Pio, Santa Cruz) for 24 hours, washed with ice-cold PBS, and lysed using 500 μl/well of a lysis buffer (150 mM NaCl, 1 mM EDTA, 1% Nonidet P-40, 5% glycerol, 25 mM tris-HCl, pH 7.5, protease inhibitor added), and the lysed cells were centrifuged at 10,000×g and 4° C. for 10 minutes to extract proteins. […]

14-3-3β and PPARγ2 = target: T2, 14-3-3β and PPARγ2 (Homo sapiens, UniProt P37231); assay: Competitive GST-pull down assay, 14-3-3β / PPARγ2 binding under 14-3-3γ overexpression; conditions: as expression amount of 14-3-3γ was increased (HA-14-3-3γ DNA 2 and 4 μg); 10 μM pioglitazone; FIG. 5A
T2 construct: expressed in transfected cells; host or cells: HEK-293T
T2 sequence (P37231 1-505): T1 sequence (P37231 1-505)
T2 sequence (P31946 1-246 partner): T1 sequence (P31946 1-246 partner)
Method: as §1, §2

| Substance | binding between 14-3-3γ and PPARγ2 (14-3-3γ and PPARγ2) | binding between 14-3-3β and PPARγ2 (14-3-3β and PPARγ2) |
| --- | --- | --- |
| 14-3-3β: 14-3-3 isoform protein, overexpressed by DNA transfection; regulating factor that increases transcriptional activity of PPARγ2 | reduced |  |
| 14-3-3γ: 14-3-3 isoform protein, overexpressed by DNA transfection; regulating factor that decreases transcriptional activity of PPARγ2 |  | reduced |
